Results as given in article PMC6917504 (Biochemistry, 2017).

Columns and labels:
[1] = target: the molecule itself; experiment: cross-linking
[2] = target: the molecule itself; experiment: SEC

Protein | stoichiometry N [1] | stoichiometry N [2]
hCNT3 Y266C/F463C double cysteine mutant (natural protein, human, UniProt Q9HAS3 1-691, looked up) MELRSTAAPRAEGYSNVGFQNEENFLENENTSGNNSIRSRAVQSREHTNTKQDEEQVTVEQDSPRNREHMEDDDEEMQQKGCLERRYDTVCGFCRKHKTTLRHIIWGILLAGYLVMVISACVLNFHRALPLFVITVAAIFFVVWDHLMAKYEHRIDEMLSPGRRLLNSHWFWLKWVIWSSLVLAVIFWLAFDTAKLGQQQLVSFGGLIMYIVLLFLFSKYPTRVYWRPVLWGIGLQFLLGLLILRTDPGFIAFDWLGRQVQTFLECTDAGASFVFGEKYKDHFFAFKVLPIVVFFSTVMSMLYYLGLMQWIIRKVGWIMLVTTGSSPIESVVASGNIFVGQTESPLLVRPYLPYITKSELHAIMTAGFSTIAGSVLGAYISFGVPSSHLLTASVMSAPASLAAAKLFWPETEKPKITLKNAMKMESGDSGNLLEAATQGASSSISLVANIAVNLIAFLALLSCMNSALSWFGNMFDYPQLSFELICSYIFMPFSFMMGVEWQDSFMVARLIGYKTFFNEFVAYEHLSKWIHLRKEGGPKFVNGVQQYISIRSEIIATYALCGFANIGSLGIVIGGLTSMAPSRKRDIASGAVRALIAGTVACFMTACIAGILSSTPVDINCHHVLENAFNSTFPGNTTKVIACCQSLLSSTVAKGPGEVIPGGNHSLYSLKGCCTLLNPSTFNCNGISNTF | 3 | 
Human concentrative nucleoside transporter 3 (hCNT3, SLC28A3), wild type, purified from High Five insect cells (natural protein, UniProt Q9HAS3 1-616, looked up) MELRSTAAPRAEGYSNVGFQNEENFLENENTSGNNSIRSRAVQSREHTNTKQDEEQVTVEQDSPRNREHMEDDDEEMQQKGCLERRYDTVCGFCRKHKTTLRHIIWGILLAGYLVMVISACVLNFHRALPLFVITVAAIFFVVWDHLMAKYEHRIDEMLSPGRRLLNSHWFWLKWVIWSSLVLAVIFWLAFDTAKLGQQQLVSFGGLIMYIVLLFLFSKYPTRVYWRPVLWGIGLQFLLGLLILRTDPGFIAFDWLGRQVQTFLEYTDAGASFVFGEKYKDHFFAFKVLPIVVFFSTVMSMLYYLGLMQWIIRKVGWIMLVTTGSSPIESVVASGNIFVGQTESPLLVRPYLPYITKSELHAIMTAGFSTIAGSVLGAYISFGVPSSHLLTASVMSAPASLAAAKLFWPETEKPKITLKNAMKMESGDSGNLLEAATQGASSSISLVANIAVNLIAFLALLSFMNSALSWFGNMFDYPQLSFELICSYIFMPFSFMMGVEWQDSFMVARLIGYKTFFNEFVAYEHLSKWIHLRKEGGPKFVNGVQQYISIRSEIIATYALCGFANIGSLGIVIGGLTSMAPSRKRDIASGAVRALIAGTVACFMTACIAGILSSTP |  | 3
